According to the supplement of paper PMC10899765:

Experiments:
Details in all cases: 20 nM; 72 h
MCF10A [1] = test: percent viability (nuclei count relative to siNT); higher = more viable cells
Procedure: (§1)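 After 72 h, cells were fixed and stained with Hoechst and anti-fibrillarin, and nucleoli per nucleus were counted with CellProfiler. Values are plate-adjusted percent effect for the one-nucleolus and 5+ nucleoli phenotypes, normalised to siNT (0%) and to the positive controls siNOL11 or siKIF11 (100%), as the mean of biological triplicates. Percent viability is the nuclei count relative to siNT.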

MCF10A [2] = test: 5+ nucleoli phenotype percent effect (relative to siNT 0% and siKIF11 100%); higher = more cells with five or more nucleoli
Procedure: as §1

MCF10A [3] = test: one-nucleolus phenotype percent effect (relative to siNT 0% and siNOL11 100%); higher = more cells with one nucleolus (ribosome biogenesis inhibition)
Procedure: as §1

Sequence | percent viability (MCF10A [1]) [%] | 5+ nucleoli phenotype percent effect (MCF10A [2]) [%] | one-nucleolus phenotype percent effect (MCF10A [3]) [%]
UGGGGCGGAGCUUCCGGAG [hsa-miR-3180] | 25.6 | -11.7 | 10.4
AGCUGUCUGUGUUUUCCUUCUCAG [hsa-miR-6876-3p] | 58.5 | -19.1 | 6.32
UCUCUGGAGGGAAGCACUUUCUG [hsa-miR-518c-5p] | 45.4 | -17.1 | 33.3
UCAUAUUGCUUCUUUCU [hsa-miR-1279] | 187 | 35.8 | -26.6
AAACAUUCGCGGUGCACUUCUU [hsa-miR-543] | 37.4 | 0.749 | -1.05
UGAAACAUACACGGGAAACCUC [hsa-miR-494] | 24.5 | -37.3 | 34.9
GUGAGUGUGGAUCCUGGAGGAAU [hsa-miR-4658] | 52.7 | 0.899 | -8.09
AAUGUAAACAGGCUUUUUGCU [hsa-miR-4495] | 68.8 | 29.4 | 2.68
AAGUGAUCUAAAGGCCUACAU [hsa-miR-1245a] | 48.6 | -34 | 10.4
UAAGUGCUUCCAUGUUUCAGUGG [hsa-miR-302c-3p] | 78 | 52.1 | -16.2
UGGGGGAGUGCAGUGAUUGUGG [hsa-miR-5698] | 161 | 43.2 | -25.1
CAGCCCGGAUCCCAGCCCACUU [hsa-miR-3940-3p] | 33.5 | -8.21 | 2.08
AGCUACAGUUACUUUUGCACCA [hsa-miR-548v] | 68.4 | -8.87 | -5.59
GAAAAUGAUGAGUAGUGACUGAUG [hsa-miR-3662] | 88.3 | 57.8 | -17.5
AAUCCCAAUGCUAGACCCGGUG [hsa-miR-4733-5p] | 19.5 | 2.55 | 2.5
UGCUCAGGUUGCACAGCUGGGA [hsa-miR-3934-3p] | 52.8 | -20.7 | 9.77
AGAGGUAUAGGGCAUGGGAA [hsa-miR-202-3p] | 42.3 | 3.86 | 10.1
AAAAUGGUGCCCUAGUGACUACA [hsa-miR-224-3p] | 13.9 | -15 | 12.8
CCUGCAGCGACUUGAUGGCUUCC [hsa-miR-1184] | 70.1 | -8.51 | 4.01
GUGAAUUACCGAAGGGCCAUAA [hsa-miR-183-3p] | 56.8 | -32 | 9.97
AAAAGUGAUUGCAGUGUUUG [hsa-miR-548ah-5p] | 114 | 17.4 | -15.3
AUGGUCUCCUGUUCUCUGCAG [hsa-miR-6843-3p] | 31.7 | 7.69 | 10.8
AAUCAGUGAAUGCCUUGAACCU [hsa-miR-5094] | 63.5 | -13.9 | -15

Sequence | percent viability (MCF10A [1]) [%] | 5+ nucleoli phenotype percent effect (MCF10A [2]) [%] | one-nucleolus phenotype percent effect (MCF10A [3]) [%]
CUCUAGAGGGAAGCACUUUCUG [hsa-miR-518d-5p] | 57.8 | 5.06 | -4.59
ACGGGGAGUCAGGCAGUGGUGGA [hsa-miR-6777-5p] | 28.5 | -32.1 | 32
CAGGGCUGGCAGUGACAUGGGU [hsa-miR-4446-3p] | 25.9 | -5.74 | 1.33
GUCCACUUCUGCCUGCCCUGCC [hsa-miR-4436b-5p] | 51.1 | -0.992 | -10.1
UGCUGGCUCAUUUCAUAUGUGU [hsa-miR-5580-5p] | 29.6 | -18.4 | 22.1
UUAUCAGAAUCUCCAGGGGUAC [hsa-miR-361-5p] | 62.4 | -4.16 | -9.14
CUGCAAUGUAAGCACUUCUUAC [hsa-miR-106a-3p] | 72.6 | -24.5 | 18.7
GUUUCACCAUGUUGGUCAGGC [hsa-miR-5096] | 49 | -17.6 | 21.9
AACUAGUAAUGUUGGAUUAGGG [hsa-miR-3923] | 21.9 | -20.8 | 43.2
CGGGGAGAGAACGCAGUGACGU [hsa-miR-3175] | 33.4 | -3.98 | 5.01
ACCGUGCAAAGGUAGCAUA [hsa-miR-1973] | 119 | -30.8 | 2.66
AUAUGCCUGGCUAGCUCCUC [hsa-miR-4633-5p] | 31.4 | -31.2 | 27.8
UGAGUGAUUGAUAGCUAUGUUC [hsa-miR-4765] | 52.9 | 24.9 | -19.8
AGGCAGGUUAUCUGGGCUG [hsa-miR-4736] | 12 | 13.2 | 19.8
GAAGAAUAGGAGGGACUUUGU [hsa-miR-6507-5p] | 79.1 | 35.1 | -12.9
CAACCACCACUGUCUCUCCCCAG [hsa-miR-6776-3p] | 91.3 | 48.4 | -24.4
UUGUCUCUUGUUCCUCACACAG [hsa-miR-6818-3p] | 57.7 | 16.4 | -11.1
UAAUGCCCCUAAAAAUCCUUAU [hsa-miR-365a-3p] | 89.5 | 6.01 | 2.74
GGGGGGGGGGGGGGGGGGCCG [hsa-miR-1234-5p] | 78.1 | 65.1 | -31.5
CUGGGGGGAGGAGACCCUGCU [hsa-miR-7109-5p] | 38.9 | -2.63 | 29.9
UCCUGUCUUUCCUUGUUGGAGC [hsa-miR-5699] | 186 | 51.3 | -26.2
GUGGGCUGGGCUGGGCUGGGCC [hsa-miR-3620-5p] | 31.3 | -31.1 | 27.5
